This experiment concerns the target Gal4-DBD/CREM (UniProt P04386). The experiment can be described thus: cell-based or functional assay.

As for ACT/Gal4-AD (from UniProt Q9WTX7 1-284), the activity in yeast (β-galactosidase reporter), compared with ACT (fold (against ACT)) was determined as 2.

For the origin of these results see US6660841.
